Biological target: Presenilin 1 (mouse (endogenous in primary neurons of …, UniProt P49769 1-467))
Assay: co-IP

B1: Synaptotagmin 1 (natural protein)
chain: MVSASRPEALAAPVTTVATLVPHNATEPASPGEGKEDAFSKLKQKFMNELHKIPLPPWALIAIAIVAVLLVVTCCFCVCKKCLFKKKNKKKGKEKGGKNAINMKDVKDLGKTMKDQALKDDDAETGLTDGEEKEEPKEEEKLGKLQYSLDYDFQNNQLLVGIIQAAELPALDMGGTSDPYVKVFLLPDKKKKFETKVHRKTLNPVFNEQFTFKVPYSELGGKTLVMAVYDFDRFSKHDIIGEFKVPMNTVDFGHVTEEWRDLQSAEKEEQEKLGDICFSLRYVPTAGKLTVVILEAKNLKKMDVGGLSDPYVKIHLMQNGKRLKKKKTTIKKNTLNPYYNESFSFEVPFEQIQKVQVVVTVLDYDKIGKNDAIGKVFVGYNSTGAELRHWSDMLANPRRPIAQWHTLQVEEEVDAMLAVKK
For B1, the “fold change of co-precipitated Syt-1/PS1, old against young neurons (-KCl)” value was 1.79 fold.

Reference: PMC7325863 (Neurobiology of aging, 2019)
